Measured values as given in patent US20100298220A1.

Target: FGF receptor (on NIH 3T3 fibroblasts)
Test: cell-based or functional assay

EC50 of mitogenic activity, NIH 3T3 fibroblast proliferation, in the absence of heparin [ng/mL]	EC50 of mitogenic activity, NIH 3T3 fibroblast proliferation, in the presence of 10 U/ml heparin [ng/mL]	fold increase in mitogenic activity relative to wild-type FGF-1, in the absence of added heparin [fold]	Substance
5.43	0.36	10	Ala66→Cys mutant of human FGF-1 (140 amino acid form, His-tagged), oxidized form (from UniProt P05230 16-155) (ligand)
58.4	0.48		wild-type human FGF-1, 140 amino acid form, with an additional amino-terminal six His tag (from UniProt P05230 16-155) (ligand)
